Reference: publication PMC7863765

Target: T1, untagged full-length human 14-3-3ζ (human), P63104
T1 chain: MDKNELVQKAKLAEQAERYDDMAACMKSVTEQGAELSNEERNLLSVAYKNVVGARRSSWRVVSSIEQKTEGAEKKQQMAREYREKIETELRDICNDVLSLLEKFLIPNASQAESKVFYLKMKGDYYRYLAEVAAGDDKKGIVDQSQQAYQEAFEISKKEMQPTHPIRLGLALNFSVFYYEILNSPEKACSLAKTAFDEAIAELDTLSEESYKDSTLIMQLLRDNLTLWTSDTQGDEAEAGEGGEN
Assay: SEC
Conditions: remark: other sources report otherwise

B1: untagged full-length human 14-3-3ζ, P63104 1-245 (natural protein)
chain: T1 chain
Binder B1 has a stoichiometry N of 2.
